Values belong to the binder of their own block, whether it stands above or below them.
What was measured:
[1] = target: T1, P8mSN; test: two-hybrid library CCNG1;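 further: natural log of median RNA to DNA barcode read ratio; higher means stronger binding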
T1 chain: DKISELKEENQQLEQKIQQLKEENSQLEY

[2] = target: T2, P9mSN; test: two-hybrid library CCNG1;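 further: natural log of median RNA to DNA barcode read ratio; higher means stronger binding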
T2 chain: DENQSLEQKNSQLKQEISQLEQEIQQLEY

[3] = target: T3, P6-AA-1HGe-A; test: two-hybrid library CCmax; conditions: mean of both orientations;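 further: natural log of median RNA to DNA barcode read ratio; higher means stronger binding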
T3 chain: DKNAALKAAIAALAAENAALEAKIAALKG

[4] = target: T4, P6-AA-1HGe-D; test: two-hybrid library CCmax; conditions: mean of both orientations;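 further: natural log of median RNA to DNA barcode read ratio; higher means stronger binding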
T4 chain: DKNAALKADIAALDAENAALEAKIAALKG

[5] = target: T5, P6-AA-1HGe-H; test: two-hybrid library CCmax; conditions: mean of both orientations
T5 chain: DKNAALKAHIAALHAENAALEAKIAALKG

[6] = target: T6, P6-AA-1HGe-M; test: two-hybrid library CCmax; conditions: mean of both orientations
T6 chain: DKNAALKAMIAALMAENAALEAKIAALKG

[7] = target: T7, P6-AA-1HGe-Q; test: two-hybrid library CCmax; conditions: mean of both orientations
T7 chain: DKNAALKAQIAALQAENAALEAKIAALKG

[8] = target: T8, P6-AA-1HGe-R; test: two-hybrid library CCmax; conditions: mean of both orientations
T8 chain: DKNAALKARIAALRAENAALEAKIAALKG

[9] = target: T9, P6-AA-1HGe-S; test: two-hybrid library CCmax; conditions: mean of both orientations
T9 chain: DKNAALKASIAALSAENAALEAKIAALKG

[10] = target: T10, P6-AA-1HGe-T; test: two-hybrid library CCmax; conditions: mean of both orientations
T10 chain: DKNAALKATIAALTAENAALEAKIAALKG

[11] = target: T11, P6-AA-1HGe-W; test: two-hybrid library CCmax; conditions: mean of both orientations
T11 chain: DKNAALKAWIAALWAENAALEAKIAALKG

interaction score [1]: -0.489 | interaction score [2]: -1.04
B1: P8mSN (peptide)
chain: DKISELKEENQQLEQKIQQLKEENSQLEY

interaction score [3]: 2.25 | interaction score [4]: 1.74 | interaction score [5]: 1.64 | interaction score [6]: 1.53 | interaction score [7]: 1.9 | interaction score [8]: 1.45 | interaction score [9]: 1.48 | interaction score [10]: 1.66 | interaction score [11]: 1.25
B2: P5-AA-1HGe-R (peptide)
chain: DENAALEARIAALRAKNAALKAEIAALEG

interaction score [3]: 1.97 | interaction score [4]: 0.67 | interaction score [5]: 1.34 | interaction score [6]: 1.92 | interaction score [7]: 2.17 | interaction score [8]: 1.42 | interaction score [9]: 1.46 | interaction score [10]: 2.11 | interaction score [11]: 0.892
B3: P5-AA-1HGe-W (peptide)
chain: DENAALEAWIAALWAKNAALKAEIAALEG

interaction score [3]: 2.25 | interaction score [4]: 1.58 | interaction score [5]: 2.05 | interaction score [6]: 2.3 | interaction score [7]: 2.07 | interaction score [8]: 2.05 | interaction score [9]: 2.03 | interaction score [10]: 2.32 | interaction score [11]: 1.97
B5: P5-AA-1HGe-Q (peptide)
chain: DENAALEAQIAALQAKNAALKAEIAALEG

The next lines start with the binder.

B4: P5-AA-1HGe-A (peptide)
chain: DENAALEAAIAALAAKNAALKAEIAALEG
interaction score [3]: 2.12 | interaction score [4]: 1.06 | interaction score [5]: 1.73 | interaction score [6]: 2.21 | interaction score [7]: 2.31 | interaction score [8]: 2.03 | interaction score [9]: 1.63 | interaction score [10]: 2.02 | interaction score [11]: 1.57

B6: P5-AA-1HGe-D (peptide)
chain: DENAALEADIAALDAKNAALKAEIAALEG
interaction score [3]: 0.812 | interaction score [4]: -1.28 | interaction score [5]: 0.69 | interaction score [6]: 0.758 | interaction score [7]: 1.12 | interaction score [8]: 1.62 | interaction score [9]: -0.145 | interaction score [10]: 1.14 | interaction score [11]: -0.238

Source: PMC10397247
